Source: PMC10397247
Blank lines part the entries; values can stand above or below the binder they belong to.

Legend:
APC9096-AA = molecular target: T1, APC9096-AA; assay: two-hybrid library CCmax; conditions: mean of both orientations;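 also: natural log of median RNA to DNA barcode read ratio; higher means stronger binding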
T1 chain: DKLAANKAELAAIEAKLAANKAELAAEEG

APC7099-AA = molecular target: T2, APC7099-AA; assay: two-hybrid library CCmax; conditions: mean of both orientations;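 also: natural log of median RNA to DNA barcode read ratio; higher means stronger binding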
T2 chain: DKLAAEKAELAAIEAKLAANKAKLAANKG

APC9319-AA = molecular target: T3, APC9319-AA; assay: two-hybrid library CCmax; conditions: mean of both orientations;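 also: natural log of median RNA to DNA barcode read ratio; higher means stronger binding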
T3 chain: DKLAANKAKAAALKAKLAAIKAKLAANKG

APC8191-AA = molecular target: T4, APC8191-AA; assay: two-hybrid library CCmax; conditions: mean of both orientations;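 also: natural log of median RNA to DNA barcode read ratio; higher means stronger binding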
T4 chain: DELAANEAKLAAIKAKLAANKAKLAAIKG

APC5383-AA = molecular target: T5, APC5383-AA; assay: two-hybrid library CCmax; conditions: mean of both orientations;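 also: natural log of median RNA to DNA barcode read ratio; higher means stronger binding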
T5 chain: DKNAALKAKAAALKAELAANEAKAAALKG

APC8910-AA = molecular target: T6, APC8910-AA; assay: two-hybrid library CCmax; conditions: mean of both orientations;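 also: natural log of median RNA to DNA barcode read ratio; higher means stronger binding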
T6 chain: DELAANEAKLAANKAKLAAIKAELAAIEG

APC4436-AA = molecular target: T7, APC4436-AA; assay: two-hybrid library CCmax
T7 chain: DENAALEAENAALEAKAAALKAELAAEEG

APC6108-AA = molecular target: T8, APC6108-AA; assay: two-hybrid library CCmax; conditions: mean of both orientations
T8 chain: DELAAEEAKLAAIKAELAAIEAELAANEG

4H796-bH = molecular target: T9, 4H796-bH; assay: two-hybrid library CCNG1
T9 chain: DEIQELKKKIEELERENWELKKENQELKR

4H949-bH = molecular target: T10, 4H949-bH; assay: two-hybrid library CCNG1
T10 chain: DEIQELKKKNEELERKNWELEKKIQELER

4H730-bH = molecular target: T11, 4H730-bH; assay: two-hybrid library CCNG1
T11 chain: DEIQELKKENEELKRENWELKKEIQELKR

4H932-bH = molecular target: T12, 4H932-bH; assay: two-hybrid library CCNG1
T12 chain: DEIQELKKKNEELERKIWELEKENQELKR

4H56-bH = molecular target: T13, 4H56-bH; assay: two-hybrid library CCNG1
T13 chain: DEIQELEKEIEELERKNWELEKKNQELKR

4H2729-AA = molecular target: T14, 4H2729-AA; assay: two-hybrid library CCmax; conditions: mean of both orientations
T14 chain: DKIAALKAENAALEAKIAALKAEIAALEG

4H993-AA = molecular target: T15, 4H993-AA; assay: two-hybrid library CCmax; conditions: mean of both orientations
T15 chain: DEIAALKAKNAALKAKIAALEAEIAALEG

4H335-AA = molecular target: T16, 4H335-AA; assay: two-hybrid library CCmax; conditions: mean of both orientations
T16 chain: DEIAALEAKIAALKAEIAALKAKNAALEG

4H881-AA = molecular target: T17, 4H881-AA; assay: two-hybrid library CCmax; conditions: mean of both orientations
T17 chain: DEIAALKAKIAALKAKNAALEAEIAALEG

4H3112-AA = molecular target: T18, 4H3112-AA; assay: two-hybrid library CCmax; conditions: mean of both orientations
T18 chain: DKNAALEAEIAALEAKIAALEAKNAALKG

4H2617-AA = molecular target: T19, 4H2617-AA; assay: two-hybrid library CCmax; conditions: mean of both orientations
T19 chain: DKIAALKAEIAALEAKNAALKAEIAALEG

4H3844-AA = molecular target: T20, 4H3844-AA; assay: two-hybrid library CCmax; conditions: mean of both orientations
T20 chain: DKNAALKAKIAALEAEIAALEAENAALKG

4H3921-AA = molecular target: T21, 4H3921-AA; assay: two-hybrid library CCmax; conditions: mean of both orientations
T21 chain: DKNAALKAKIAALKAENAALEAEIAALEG

4H2642-AA = molecular target: T22, 4H2642-AA; assay: two-hybrid library CCmax; conditions: mean of both orientations
T22 chain: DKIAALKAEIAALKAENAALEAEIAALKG

4H3606-AA = molecular target: T23, 4H3606-AA; assay: two-hybrid library CCmax; conditions: mean of both orientations
T23 chain: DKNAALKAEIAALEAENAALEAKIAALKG

4H717-AA = molecular target: T24, 4H717-AA; assay: two-hybrid library CCmax; conditions: mean of both orientations
T24 chain: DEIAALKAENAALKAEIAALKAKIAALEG

4H794-AA = molecular target: T25, 4H794-AA; assay: two-hybrid library CCmax; conditions: mean of both orientations
T25 chain: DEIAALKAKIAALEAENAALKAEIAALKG

4H780-AA = molecular target: T26, 4H780-AA; assay: two-hybrid library CCmax; conditions: mean of both orientations
T26 chain: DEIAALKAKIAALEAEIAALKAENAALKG

4H2575-AA = molecular target: T27, 4H2575-AA; assay: two-hybrid library CCmax; conditions: mean of both orientations
T27 chain: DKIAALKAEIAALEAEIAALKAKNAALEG

4H48-AA = molecular target: T28, 4H48-AA; assay: two-hybrid library CCmax; conditions: mean of both orientations
T28 chain: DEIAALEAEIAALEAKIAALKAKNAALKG

4H2466-AA = molecular target: T29, 4H2466-AA; assay: two-hybrid library CCmax; conditions: mean of both orientations
T29 chain: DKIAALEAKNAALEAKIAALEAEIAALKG

4H566-AA = molecular target: T30, 4H566-AA; assay: two-hybrid library CCmax; conditions: mean of both orientations
T30 chain: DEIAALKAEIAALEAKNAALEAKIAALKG

4H678-AA = molecular target: T31, 4H678-AA; assay: two-hybrid library CCmax; conditions: mean of both orientations
T31 chain: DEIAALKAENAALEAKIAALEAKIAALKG

4H317-AA = molecular target: T32, 4H317-AA; assay: two-hybrid library CCmax; conditions: mean of both orientations
T32 chain: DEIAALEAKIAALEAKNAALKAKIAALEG

4H2944-AA = molecular target: T33, 4H2944-AA; assay: two-hybrid library CCmax; conditions: mean of both orientations
T33 chain: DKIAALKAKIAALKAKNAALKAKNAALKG

4H342-AA = molecular target: T34, 4H342-AA; assay: two-hybrid library CCmax; conditions: mean of both orientations
T34 chain: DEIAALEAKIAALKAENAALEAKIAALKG

4H2837-AA = molecular target: T35, 4H2837-AA; assay: two-hybrid library CCmax; conditions: mean of both orientations
T35 chain: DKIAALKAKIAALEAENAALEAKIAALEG

4H429-AA = molecular target: T36, 4H429-AA; assay: two-hybrid library CCmax; conditions: mean of both orientations
T36 chain: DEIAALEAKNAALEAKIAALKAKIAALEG

4H906-AA = molecular target: T37, 4H906-AA; assay: two-hybrid library CCmax; conditions: mean of both orientations
T37 chain: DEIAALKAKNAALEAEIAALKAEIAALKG

4H2754-AA = molecular target: T38, 4H2754-AA; assay: two-hybrid library CCmax; conditions: mean of both orientations
T38 chain: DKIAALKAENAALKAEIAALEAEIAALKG

4H605-AA = molecular target: T39, 4H605-AA; assay: two-hybrid library CCmax; conditions: mean of both orientations
T39 chain: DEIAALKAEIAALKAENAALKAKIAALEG

4H2883-AA = molecular target: T40, 4H2883-AA; assay: two-hybrid library CCmax; conditions: mean of both orientations
T40 chain: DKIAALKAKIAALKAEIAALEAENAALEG

4H2505-AA = molecular target: T41, 4H2505-AA; assay: two-hybrid library CCmax; conditions: mean of both orientations
T41 chain: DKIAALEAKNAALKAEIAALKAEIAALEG

4H3427-AA = molecular target: T42, 4H3427-AA; assay: two-hybrid library CCmax; conditions: mean of both orientations
T42 chain: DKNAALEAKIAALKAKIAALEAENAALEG

4H3343-AA = molecular target: T43, 4H3343-AA; assay: two-hybrid library CCmax; conditions: mean of both orientations
T43 chain: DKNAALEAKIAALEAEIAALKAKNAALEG

4H3655-AA = molecular target: T44, 4H3655-AA; assay: two-hybrid library CCmax; conditions: mean of both orientations
T44 chain: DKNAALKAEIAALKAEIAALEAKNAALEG

4H2949-AA = molecular target: T45, 4H2949-AA; assay: two-hybrid library CCmax; conditions: mean of both orientations
T45 chain: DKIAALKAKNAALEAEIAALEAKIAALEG

4H3627-AA = molecular target: T46, 4H3627-AA; assay: two-hybrid library CCmax; conditions: mean of both orientations
T46 chain: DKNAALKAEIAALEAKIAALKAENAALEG

4H454-AA = molecular target: T47, 4H454-AA; assay: two-hybrid library CCmax; conditions: mean of both orientations
T47 chain: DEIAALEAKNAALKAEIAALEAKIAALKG

P9 = molecular target: T48, P9; assay: two-hybrid library CC1; conditions: mean of both orientations
T48 chain: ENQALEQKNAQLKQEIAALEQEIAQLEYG

P8mS = molecular target: T49, P8mS; assay: two-hybrid library CC1
T49 chain: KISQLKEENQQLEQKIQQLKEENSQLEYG

4H477-bH = molecular target: T50, 4H477-bH; assay: two-hybrid library CCNG1
T50 chain: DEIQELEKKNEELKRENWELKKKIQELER

4H741-bH = molecular target: T51, 4H741-bH; assay: two-hybrid library CCNG1
T51 chain: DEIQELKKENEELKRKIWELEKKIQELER

4H492-bH = molecular target: T52, 4H492-bH; assay: two-hybrid library CCNG1
T52 chain: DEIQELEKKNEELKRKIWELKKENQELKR

interaction score (APC9096-AA): -1.96
interaction score (APC7099-AA): -1.57
interaction score (APC9319-AA): -1.7
interaction score (APC8191-AA): -2.27
interaction score (APC5383-AA): -1.76
interaction score (APC8910-AA): -1.76
interaction score (APC4436-AA): -2.09
interaction score (APC6108-AA): -2.03
Binder: DENAALEAENAALEAKAAALKAELAAEEG [APC4436-AA]

interaction score (4H796-bH): 0.682
interaction score (4H949-bH): -1.15
interaction score (4H730-bH): -0.307
interaction score (4H932-bH): -0.0294
interaction score (4H56-bH): -0.661
Binder: DEIQELEKEIEELERKNWELEKKNQELKR [4H56-bH]

interaction score (4H2729-AA): -0.695
interaction score (4H993-AA): -1.5
interaction score (4H335-AA): -1.56
interaction score (4H881-AA): -1
interaction score (4H3112-AA): -1.21
interaction score (4H2617-AA): 1.93
interaction score (4H3844-AA): 1.55
interaction score (4H3921-AA): -1.77
interaction score (4H2642-AA): 1.82
interaction score (4H3606-AA): 2.32
interaction score (4H717-AA): -1.55
interaction score (4H794-AA): 1.33
interaction score (4H780-AA): -1.42
interaction score (4H2575-AA): -1.03
interaction score (4H48-AA): -0.193
interaction score (4H2466-AA): 0.221
interaction score (4H566-AA): 1.33
interaction score (4H678-AA): -0.574
interaction score (4H317-AA): 1.92
interaction score (4H2944-AA): -0.902
interaction score (4H342-AA): 2.37
interaction score (4H2837-AA): 1.73
interaction score (4H429-AA): -1.55
interaction score (4H906-AA): -1.04
interaction score (4H2754-AA): -1.23
interaction score (4H605-AA): 0.852
interaction score (4H2883-AA): -1.21
interaction score (4H2505-AA): -1.59
interaction score (4H3427-AA): -1.45
interaction score (4H3343-AA): -1.29
interaction score (4H3655-AA): -1.41
interaction score (4H2949-AA): 1.51
interaction score (4H3627-AA): -1.42
interaction score (4H454-AA): -0.951
Binder: DKIAALEAKIAALKAENAALKAEIAALEG [4H2393-AA]

Binder: KISQLKEENQQLEQKIQQLKEENSQLEYG [P8mS]
interaction score (P9): -2.35
interaction score (P8mS): -3.02

interaction score (4H477-bH): 0.526
interaction score (4H741-bH): -0.234
interaction score (4H492-bH): -1.31
Binder: DEIQELEKKNEELKRENWELKKKIQELER [4H477-bH]
